The DeepSol protein solubility set

Assay: soluble on expression in E. coli; label from the status in PepcDB or PDB records

Sequence	soluble on expression in E. coli
MQERVFHVASPKAKLYSEADQAIRERLKDFPKALRAYEMLVQDPEARSGWNMANYLTMRKLGYNDHGRVHALLTGAASVAILALLSEAGVRLDTVESGAGELEDAYVVVLLSTMLHDLGNQVHRFGHEAFGVVLALPILNRILDKLYPDPEQRTAIRALILHGIYSHDLSPEPLTIEAGITAVADGTDITKGRGRKAFQLGSIDIHSISALAVDEVRILKGEKVPVEIQVTMNNSAGIFQVEETLTKKVLKSPLRPYVTVVAMTDGEGGQDQRIVHRVRLHETEDRFVLD	soluble
TLPRPFFILAPMEDVTNIVFRHVVSEAARPDVFFTEFTNTESYCHPEGIHSVRGRLTFSDDEQPMVAHIWGDKPEQFREMSIGLADMGFKGIDLNMGCPVANVAKKGKGSGLILRPETAAEIIQASKAGGLPVSVKTRLGYYDIDEWRDWLKHVFEQDIANLSIHLRTRKEMSKVDAHWELIEAIKTLRDEIAPNTLLTINGDIPDRQTGLELANKYGIDGIMIGRGIFHNPFAFEKEPREHSSKELLGL	not soluble
APGAGPGVRRRQRSLEEIPRLGQLRFFFQLFVQGYALQLHQLQVLYKAKYGPMWMSYLGPQMHVNLASAPLLEQVMRQEGKYPVRNDMELWKEHRDQHDLTYGPFTTEGHHWYQLRQALNQRLLKPAEAALYTDAFNEVIDDFMTRLDQLRAESASGNQVSDMAQLFYYFALEAICYILFEKRIGCLQRSIPEDTVTFVRSIGLMFQNSLYATFLPKWTRPVLPFWKRYLDGWNAIFSFGKKLIDEKLEDMEAQLQAAGPDGIQVSGYLHFLLASGQLSPREAMGSLPELLMAGVDTTSNTLTWALYHLSKDPEIQEALHEEVVGVVPAGQVPQHKDFAHMPLLKAVLKETLRLYPVVPTNSRIIEKEIEVDGFLFPKNTQFVFCHYVVSRDPTAFSEPESFQPHRWLRNSQPATPRIQHPFGSVPFGYGVRACLGRRIAELEMQLLLARLIQKYKVVLAPETGELKSVARIVLVPNKKVGLQFLQRQC	not soluble
MGHHHHHHSHMATNAKPVYKRILLKLSGEALQGTEGFGIDASILDRMAQEIKELVELGIQVGVVIGGGNLFRGAGLAKAGMNRVVGDHMGMLATVMNGLAMRDALHRAYVNARLMSAIPLNGVCDSYSWAEAISLLRNNRVVILSAGTGNPFFTTDSAACLRGIEIEADVVLKATKVDGVFTADPAKDPTATMYEQLTYSEVLEKELKVMDLAAFTLARDHKLPIRVFNMNKPGALRRVVMGEKEGTLITE	soluble
MGSDKIHHHHHHMLFPDLANKIVREVRRLIKENIIIINIQGVIIASTDIERIGQFHEGALRCAKQKKTVIITKEDERRLQGVKAGMNLPLLFHDEVIGVIGITGEPENISQYGEILRKMTELLIHENYFLEQLELEHRSYEAFVFDWLQNTDWSPSFLDRAKTLGIDLYKKKQLILFSIDRNDTMLQRKVWQHVRNLLTKEHLFIRWGNDRFILFTATNSKEQTYQFLKRLKQDCETLFSVPLYIGIGQSVTPSNMNLSYEQALQALSVSLETKNIVFNEDLRLEMCLQDISAETREQFLKRTIENLLSSPELMHTLRLFIDYNQSYKQTAEQLHIHINTLHYRLKKIEEYTGLDPKQFKDLNILYFSLLLLDNHTKKNDKTD	not soluble
MSLKAIFITGAGSGMGREGATLFHANGWRVGAIDRNEDGLAALRVQLGAERLWARAVDVTDKAALEGALADFCAGNVGGGLDMMWNNAGIGEGGWFEDVPYEAAVRVVDVNFKAVLTGAYAALPYLKKAPGSLMFSTSSSSGTYGMPRIAVYSATKHAVKGLTEALSVEWQRHGVRVADVLPGLIDTAILTSTRQHSDEGPYTISAEQIRAAAPKKGMFRLMPSSSVAEAAWRAYQHPTRLHWYVPRSIRWIDRLKGVSPEFVRRHIAKSLATLEPKREGHHHHHH	soluble
MSLAEQKPGEGQKTAIKIGVMIDLSGPLTTYGNSIKNTLEIAKEDINAYLEEKGLPYTVEFYVEDTKVDPKIALEKIQSLHSKGINLVIGPMGSGEVSNIKGYVQSNKIIIISPSSTLLPSLLGITKPEDKKYIFRFVGTDDLQTDAITAELKDLGIKAVIITYTGNDWGKGLYETIKPKLDAAGIEIVGEPVEYPSPPPADFSPYIATLESKLNDALQKYDASEVAVVAFSYEEAATMLAQTKDDSPLLNVLWLGCDGTALSDKMLEVCDKASKVRMLSTLFESKGEAYEQLAKKYKERGFGDSPYQYALNAYDAAWVLVLSYIEVVKEKGSYDPDAMNAKIPEVTEKYSKGEYGVKPVSGYIKLNEWNDRASGDYAIYEVTQDCKWQTAGIWKFTENKIEWLEGHHHHHH	soluble
MSLRYIYFFGRKINLSERDKIFRDITSKYKCIHDLRCAFDHTEISSFENIDFNIIDDYLFYIELNEKSYTFNDGISLMVQERFWEAHEALEQLWRHSNGLEKSTLRFIIMVCTAFVHLQRGHYSIYHEVMENALKIDTYNEYKCINIKSLKSEIRSGIFNTYFFIKSLKEGHHHHHH	soluble
PTILVVGDLMIDHYIWGECERISPEAPVQVIDVKRETKTLGGACNVMSNLIALEASVLSCGVVGEDLAGRELLGFLQELGMESKGIITQKGRPTTQKSRIIASNQQVVRVDWENKSPISEESEEAMIAYIRSKLSLCDAVILSDYGKGVLTPRVCQTIIQMAKTLQKRVLVDPKGRDYSKYRGASLLTPNKKEAKEATGIEINDEASLKKALECLKKECELEFSVITLSEDGIGIFDQALERIPTIAQEVYDVTGAGDTVIASLAYGLSLGYPLRECALFANAAAAVVVGKIGSATATHGEIAEYLHS	not soluble
MASIAIEYHSVVLGMERKVNVIYPDQSEIPKKDQGDKDIPVLYLLHGMGGNENSWQKRTAIERLLRHTNLIVVMPSTDLGWYTDTAYGLNYYRALSQELPQVLAAFFPNMTQKREKTFVAGLSMGGYGAFKWALKSNRFSYAASFSGALDFSPETLLEGKLGELAYWQGVFGQFDDPDLDKHYLKNMVAESDGKTKFYAWCGYEDFLFATNEKAIADFQAQGLDIDYHKGHGKHEWYYWNQQLEVLLEWLPINYQKEERLS	not soluble
VHFHPFGNVNFYEMDWSLKGDLWAHDPVIAKEGSRWYVFHTGSGIQIKTSEDGVHWENMGWVFPSLPDWYKQYVPEKDEDHLWAPDICFYNGIYYLYYSVSTFGKNTSVIGLATNQTLDPRDPDYEWKDMGPVIHSTASDNYNAIAPNVVFDQEGQPWLSFGSFWSGIQLIQLDTETMKPAAQAELLTIASRGEEPNAIEAPFIVCRNGYYYLFVSFDFCCRGIESTYKIAVGRSKDITGPYVDKNGVSMMQGGGTILDEGNDRWIGPGHCAVYFSGVSAILVNHAYDALKNGEPTLQIRPLYWDDEGWPYLSV	soluble
MPIEIITDSGADLPQSYIREHRIAFLPLVVHWNGQDYKDGITIEPKQVYDAMRQGHTVKTAQPSPLAMKELFLPYAKENRPCLYIAFSSKLSGTYQTAMAVRSELLDEYPEFRLTIIDSKCASLGQGLAVMKAVELAKQNTPYNLLCETIESYCRHMEHIFTVDNLDYLARGGRISKTAAAFGGLLNIKPLLHVEDGALIPLEKWRGRKKVLKRMVELMGERGDDLQKQTIGISHADDEETALELKQMIEETHGCTRFFLSDIGSAIGAHAGPGTIALFFLNKYIEI	soluble
MGSDKIHHHHHHMLIPLYMRYHESLKPDPIIHDASALRLVPQIDYDFSKFDTAIRSSVGSAIRATYLDSLTKAFIQQHQQPIIVMIGCGLDARHERVGDIGKNVPFYELDLPDVIALRKQLMPPAENEILLAASAFDTDWMDELRSTYPQAQFLFVIEGVLMYFNEAQVKKLFEDLAVRFSGGEIAFDIGSTWMSRNSQKHHDVMKHMRAQFDYGCDDDHEMERWADNLHLISAKYMFDFPAWKRIGLLQAAIMWIVPFVRKSYRFLYYRIS	not soluble
MVDLKRLRQEPEVFHRAIREKGVALDLEALLAVDEQLHKQQEVIADKQMSVKEDLDKVEPAVIEAQNAVKSIKKQHLVEVRSMANPPAAVKLALESIALLLGESTTDWKQIRSIIMRENFIPTIVNFSAEEISDAIREKMKKNYMSNPSYNYEIVNRASLAAGPMVKWAIAQLNYADMLKRVEPLRNELQKLEDDAKDNQQKLEALLLQVPLPPWPGAPVGGEEANREIKRVGGPPEFSFPPLDHVALMEKNGWWEPRISQVSGSRSYALKGDLALYELALLRFAMDFMARRGFLPMTLPSYAREKAFLGTGHFPAYRDQVWAIAETDLYLTGTAEVVLNALHSGEILPYEALPLRYAGYAPAFRSEAGSFGKDVRGLMRVHQFHKVEQYVLTEASLEASDRAFQELLENAEEILRLLELPYRLVEVATGDMGPGKWRQVDIEVYLPSEGRYRETHSCSALLDWQARRANLRYRDPEGRVRYAYTLNNTALATPRILAMLLENHQLQDGRVRVPQALIPYMGKEVLEPGAHHHHHH	soluble
MTVELCGRWDARDVAGGRYRVINNVWGAETAQCIEVGLETGNFTITRADHDNGNNVAAYPAIYFGCHWGACTSNSGLPRRVQELSDVRTSWTLTPITTGRWNAAYDIWFSPVTNSGNGYSGGAELMIWLNWNGGVMPGGSRVATVELAGATWEVWYADWDWNYIAYRRTTPTTSVSELDLKAFIDDAVARGYIRPEWYLHAVETGFELWEGGAGLRSADFSVTVQKLAAALEIKRASQPELAPEDPEDVEHHHHHH	soluble
MNKEEQYLLFALSAPMEILNQSCKPAHDSPKMYTGIKEFDLSSSWGINNRDDLIQTIYQMTDDGHANDLAGLYLTWQRSSPEEWKALIAGGSERGLIYTQFVAQTAMCCGEGGIKAWDYVRMGFLSRAGVLNNWLTEEESLWLQSRVYARAHHYYHSWMHYFSAYSLGRLYWQSSQCEDNASLREALTLYKYDSAGSRMFEELAAGSDRFYATLPWQPLTVQPECPVTLKDVSDL	not soluble
MKNSFQTLKTLTTKSGTYGYYDLQELERKGVAEVSRLPFSIRVMLESLLRNEDGYQVTREDIEALARWRPDPGEINVPLKLARVILQDFTGVPAVVDLAAMRDAIKAKGGDPKRINPVVPADLVIDHSVQVDAFGTAYAFFYNVEKEYERNRERYLLLKWAQNALENFRVVPPGTGIVHQVNIEYLTKVVMTGKRDGLTLAFPDSLVGTDSHTTMVNGLGVLGWGVGGIEAEAVMLGQPYYMLAPRVVGFKLYGELPEGATATDLVLTVTEMLRKHGVVGKFVEFYGPGVAKLSTPDRATIANMAPEYGATMGFFPVDEETLNYLRQTGRPEELVELVEAYTKAVGLFRTPEAEEKVQYSEYLELDLSAVEPSLAGPKRPQDRVPLKEVKKSFLAHLTKPVKERGFGLSEDQLQRKVLVKRRDEEFELTHGSVVIAAITSCTNTSNPSVMLGAGLLAKKAVEAGLDRKPWVKTSLAPGSKVVTDYLEMSGLMPFLEALGFHLVGYGCTTCIGNSGPLPEDIAKAVEEGNLVVAAVLSGNRNFEGRINPHVKANYLASPMLVVAYALAGRMDIDFTTEPLGFDPNGKPIYLKDIWPSMEEIREAIRKTLDPELFKKEYSKVFEGDERWQALPAPTGELYQWDPESTYIQNPPFFEDLGERKVEDIRGARVLLVLGDSVTTDHISPAGAIPVKSPAGQYLISKGVKPEDFNSYGSRRGNHEVMMRGTFANIRIKNLMLDGIEGGYAKKLPEGDVDFVYNVAMRYKAEGTPLLVIAGKEYGTGSSRDWAAKGTYLLGIRAVLAESFERIHRSNLVGMGVLPLEFLPGENRETLGLTGYEVYDILGLEDLKPRKLVDIVARREDGSEVRFQAIARLDTPVEVDYYKNGGILQTVLLNMLKEAKATE	soluble
